Results published in US20240076396A1 (Regeneron, published 2024).

T1: hGITR.mFc (dimeric recombinant human GITR ectodomain protein, mouse Fc fusion) (human)
T1 construct: also called dimeric human GITR; dimeric GITR
T1 chain: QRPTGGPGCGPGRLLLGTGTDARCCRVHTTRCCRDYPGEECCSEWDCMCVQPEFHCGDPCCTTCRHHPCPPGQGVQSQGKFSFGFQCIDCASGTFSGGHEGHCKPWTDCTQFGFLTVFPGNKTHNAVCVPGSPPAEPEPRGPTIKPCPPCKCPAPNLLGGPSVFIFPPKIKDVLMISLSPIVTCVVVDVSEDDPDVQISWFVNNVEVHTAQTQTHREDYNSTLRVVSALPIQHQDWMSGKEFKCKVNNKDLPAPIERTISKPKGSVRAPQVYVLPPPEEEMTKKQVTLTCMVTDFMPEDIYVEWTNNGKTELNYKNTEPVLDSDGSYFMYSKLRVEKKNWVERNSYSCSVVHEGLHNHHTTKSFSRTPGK

T2: hGITR.mmH (soluble monomeric recombinant human GITR ectodomain protein) (human)
T2 construct: also called monomeric human GITR
T2 chain: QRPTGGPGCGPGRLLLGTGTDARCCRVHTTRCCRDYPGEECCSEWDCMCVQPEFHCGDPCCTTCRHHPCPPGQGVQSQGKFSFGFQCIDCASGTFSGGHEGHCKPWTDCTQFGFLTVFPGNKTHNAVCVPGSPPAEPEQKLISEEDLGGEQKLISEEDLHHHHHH


Key:
[1] = target: T1, hGITR.mFc (dimeric recombinant human …); assay: SPR Biacore 2000 25C; CHOt supernatant antibody captured on anti-human Fc; 50 nM hGITR.mFc
Experimental: (§1) Biacore experiments for antibodies secreted in conditioned culture medium were performed as follows. Using a Biacore 2000 instrument at 25° C., antibodies were captured for 80 seconds at a flow rate of 8 uL/min on a CM5 anti-humanFc-coupled surface. Approximately 1000-2000 RU of each antibody were captured. 100 nM hGITR.mmH (soluble monomeric hGITR, SEQ ID NO: 45) or 50 nM hGITR.mFc (dimeric Macaca fasicularis GITR, SEQ ID NO: 46) were injected over this surface for 2 minutes at a flow rate of 50 uL/min. Dissociation was measured for 2 minutes. The KD and t_{1/2} were calculated by fitting the double-referenced sensorgrams to a 1:1 binding model.

[2] = target: T2, hGITR.mmH (soluble monomeric …); assay: SPR Biacore 2000 25C; CHOt supernatant antibody captured on anti-human Fc; 100 nM hGITR.mmH
Experimental: as §1

Row | Binder | Kd [1] [nM] | t1/2 [1] [min] | Kd [2] [nM] | t1/2 [2] [min]
1 | CompAb1 heavy chain variant N101I (antibody, human IgG1, V domains shown, human IgG1 constant region; tested as CHOt supernatant; also called Sample Number 8) VH: QVQLQESGPGLVKPSETLSLTCIVSGGSISGYFWNWIRQPPGKGLEWIGYIYYSGTTIYNPSLKSRFTISLDTSKNQFSLKLTSVTAADTAVYYCARESYIPSPRYFDHWGQGTLVTVSS VL: not shown | 27.5 | 0.72 | 329 | 1.32
2 | CompAb1 heavy chain variant S103T (antibody, human IgG1, V domains shown, human IgG1 constant region; tested as CHOt supernatant; also called Sample Number 34) VH: QVQLQESGPGLVKPSETLSLTCIVSGGSISGYFWNWIRQPPGKGLEWIGYIYYSGTTIYNPSLKSRFTISLDTSKNQFSLKLTSVTAADTAVYYCARESYNPTPRYFDHWGQGTLVTVSS VL: not shown | 0.127 | 249 | 29.6 | 3.88
3 | CompAb1 heavy chain variant S103I (antibody, human IgG1, V domains shown, human IgG1 constant region; tested as CHOt supernatant; also called Sample Number 26) VH: QVQLQESGPGLVKPSETLSLTCIVSGGSISGYFWNWIRQPPGKGLEWIGYIYYSGTTIYNPSLKSRFTISLDTSKNQFSLKLTSVTAADTAVYYCARESYNPIPRYFDHWGQGTLVTVSS VL: not shown | 6.51 | 4.41 | 10.1 | 11.5
4 | CompAb1 heavy chain variant N101Q (antibody, human IgG1, V domains shown, human IgG1 constant region; tested as CHOt supernatant; also called Sample Number 13) VH: QVQLQESGPGLVKPSETLSLTCIVSGGSISGYFWNWIRQPPGKGLEWIGYIYYSGTTIYNPSLKSRFTISLDTSKNQFSLKLTSVTAADTAVYYCARESYQPSPRYFDHWGQGTLVTVSS VL: not shown | 9.98 | 3.86 | 3.41 | 16.7
5 | CompAb1 heavy chain variant S103D (antibody, human IgG1, V domains shown, human IgG1 constant region; tested as CHOt supernatant; also called Sample Number 21) VH: QVQLQESGPGLVKPSETLSLTCIVSGGSISGYFWNWIRQPPGKGLEWIGYIYYSGTTIYNPSLKSRFTISLDTSKNQFSLKLTSVTAADTAVYYCARESYNPDPRYFDHWGQGTLVTVSS VL: not shown | 0.595 | 65 | 77.1 | 1.01
6 | CompAb1 heavy chain variant S103P (antibody, human IgG1, V domains shown, human IgG1 constant region; tested as CHOt supernatant; also called Sample Number 31) VH: QVQLQESGPGLVKPSETLSLTCIVSGGSISGYFWNWIRQPPGKGLEWIGYIYYSGTTIYNPSLKSRFTISLDTSKNQFSLKLTSVTAADTAVYYCARESYNPPPRYFDHWGQGTLVTVSS VL: not shown | 7.79 | 2.92 | 28.4 | 11.2
7 | CompAb1 heavy chain variant S103E (antibody, human IgG1, V domains shown, human IgG1 constant region; tested as CHOt supernatant; also called Sample Number 22) VH: QVQLQESGPGLVKPSETLSLTCIVSGGSISGYFWNWIRQPPGKGLEWIGYIYYSGTTIYNPSLKSRFTISLDTSKNQFSLKLTSVTAADTAVYYCARESYNPEPRYFDHWGQGTLVTVSS VL: not shown | 0.742 | 42.4 | 119 | 0.76
8 | CompAb1 heavy chain variant N101R (antibody, human IgG1, V domains shown, human IgG1 constant region; tested as CHOt supernatant; also called Sample Number 14) VH: QVQLQESGPGLVKPSETLSLTCIVSGGSISGYFWNWIRQPPGKGLEWIGYIYYSGTTIYNPSLKSRFTISLDTSKNQFSLKLTSVTAADTAVYYCARESYRPSPRYFDHWGQGTLVTVSS VL: not shown | 29.4 | 0.86 | – | –
9 | CompAb1 heavy chain variant S103A (antibody, human IgG1, V domains shown, human IgG1 constant region; tested as CHOt supernatant; also called Sample Number 20) VH: QVQLQESGPGLVKPSETLSLTCIVSGGSISGYFWNWIRQPPGKGLEWIGYIYYSGTTIYNPSLKSRFTISLDTSKNQFSLKLTSVTAADTAVYYCARESYNPAPRYFDHWGQGTLVTVSS VL: not shown | 0.529 | 50.3 | 108 | 0.83
10 | CompAb1 heavy chain variant N101V (antibody, human IgG1, V domains shown, human IgG1 constant region; tested as CHOt supernatant; also called Sample Number 17) VH: QVQLQESGPGLVKPSETLSLTCIVSGGSISGYFWNWIRQPPGKGLEWIGYIYYSGTTIYNPSLKSRFTISLDTSKNQFSLKLTSVTAADTAVYYCARESYVPSPRYFDHWGQGTLVTVSS VL: not shown | 23.9 | 0.98 | 29.1 | 3.46
11 | CompAb1 heavy chain variant S103H (antibody, human IgG1, V domains shown, human IgG1 constant region; tested as CHOt supernatant; also called Sample Number 25) VH: QVQLQESGPGLVKPSETLSLTCIVSGGSISGYFWNWIRQPPGKGLEWIGYIYYSGTTIYNPSLKSRFTISLDTSKNQFSLKLTSVTAADTAVYYCARESYNPHPRYFDHWGQGTLVTVSS VL: not shown | 6.68 | 4.63 | 12.6 | 16.4
12 | CompAb1 heavy chain variant S103N (antibody, human IgG1, V domains shown, human IgG1 constant region; tested as CHOt supernatant; also called Sample Number 30) VH: QVQLQESGPGLVKPSETLSLTCIVSGGSISGYFWNWIRQPPGKGLEWIGYIYYSGTTIYNPSLKSRFTISLDTSKNQFSLKLTSVTAADTAVYYCARESYNPNPRYFDHWGQGTLVTVSS VL: not shown | 1.01 | 41.4 | 119 | 0.95
13 | CompAb1 heavy chain variant S103V (antibody, human IgG1, V domains shown, human IgG1 constant region; tested as CHOt supernatant; also called Sample Number 35) VH: QVQLQESGPGLVKPSETLSLTCIVSGGSISGYFWNWIRQPPGKGLEWIGYIYYSGTTIYNPSLKSRFTISLDTSKNQFSLKLTSVTAADTAVYYCARESYNPVPRYFDHWGQGTLVTVSS VL: not shown | 3.82 | 7.8 | 7.39 | 14.7
14 | CompAb1 heavy chain variant N101K (antibody, human IgG1, V domains shown, human IgG1 constant region; tested as CHOt supernatant; also called Sample Number 9) VH: QVQLQESGPGLVKPSETLSLTCIVSGGSISGYFWNWIRQPPGKGLEWIGYIYYSGTTIYNPSLKSRFTISLDTSKNQFSLKLTSVTAADTAVYYCARESYKPSPRYFDHWGQGTLVTVSS VL: not shown | 26.9 | 0.99 | 17 | 4.91
15 | CompAb1 heavy chain variant S103M (antibody, human IgG1, V domains shown, human IgG1 constant region; tested as CHOt supernatant; also called Sample Number 29) VH: QVQLQESGPGLVKPSETLSLTCIVSGGSISGYFWNWIRQPPGKGLEWIGYIYYSGTTIYNPSLKSRFTISLDTSKNQFSLKLTSVTAADTAVYYCARESYNPMPRYFDHWGQGTLVTVSS VL: not shown | 1.04 | 27.3 | 4.62 | 15.2
16 | CompAb1 heavy chain variant N101M (antibody, human IgG1, V domains shown, human IgG1 constant region; tested as CHOt supernatant; also called Sample Number 11) VH: QVQLQESGPGLVKPSETLSLTCIVSGGSISGYFWNWIRQPPGKGLEWIGYIYYSGTTIYNPSLKSRFTISLDTSKNQFSLKLTSVTAADTAVYYCARESYMPSPRYFDHWGQGTLVTVSS VL: not shown | 24 | 0.82 | 152 | 1.93
17 | CompAb1 heavy chain variant S103F (antibody, human IgG1, V domains shown, human IgG1 constant region; tested as CHOt supernatant; also called Sample Number 23) VH: QVQLQESGPGLVKPSETLSLTCIVSGGSISGYFWNWIRQPPGKGLEWIGYIYYSGTTIYNPSLKSRFTISLDTSKNQFSLKLTSVTAADTAVYYCARESYNPFPRYFDHWGQGTLVTVSS VL: not shown | 2.33 | 12.8 | 7.35 | 13.6
18 | CompAb1 heavy chain variant S103Q (antibody, human IgG1, V domains shown, human IgG1 constant region; tested as CHOt supernatant; also called Sample Number 32) VH: QVQLQESGPGLVKPSETLSLTCIVSGGSISGYFWNWIRQPPGKGLEWIGYIYYSGTTIYNPSLKSRFTISLDTSKNQFSLKLTSVTAADTAVYYCARESYNPQPRYFDHWGQGTLVTVSS VL: not shown | 0.255 | 124 | 96.8 | 0.92
19 | CompAb1 heavy chain variant S103L (antibody, human IgG1, V domains shown, human IgG1 constant region; tested as CHOt supernatant; also called Sample Number 28) VH: QVQLQESGPGLVKPSETLSLTCIVSGGSISGYFWNWIRQPPGKGLEWIGYIYYSGTTIYNPSLKSRFTISLDTSKNQFSLKLTSVTAADTAVYYCARESYNPLPRYFDHWGQGTLVTVSS VL: not shown | 15.9 | 1.66 | 85.2 | 4.59
20 | CompAb1 heavy chain variant S103W (antibody, human IgG1, V domains shown, human IgG1 constant region; tested as CHOt supernatant; also called Sample Number 36) VH: QVQLQESGPGLVKPSETLSLTCIVSGGSISGYFWNWIRQPPGKGLEWIGYIYYSGTTIYNPSLKSRFTISLDTSKNQFSLKLTSVTAADTAVYYCARESYNPWPRYFDHWGQGTLVTVSS VL: not shown | 1.61 | 27 | 116 | 0.94
21 | CompAb1 heavy chain variant S103G (antibody, human IgG1, V domains shown, human IgG1 constant region; tested as CHOt supernatant; also called Sample Number 24) VH: QVQLQESGPGLVKPSETLSLTCIVSGGSISGYFWNWIRQPPGKGLEWIGYIYYSGTTIYNPSLKSRFTISLDTSKNQFSLKLTSVTAADTAVYYCARESYNPGPRYFDHWGQGTLVTVSS VL: not shown | 5.56 | 7.4 | – | –
